Data: publication PMC8864165, “Functional Effects of ARV-1502 Analogs Against Bacterial Hsp70 and Implications for Antimicrobial Activity” (Frontiers in Chemistry, 2022)

B1: unnamed (parent)
chain 1: RPDKPRPYLPRPRPPRPVR
chain 2: not shown

Variants of: B1
Assay: competitive fluorescence polarization
Conditions: with partner chain of the complex shown; S. aureus DnaK 16 µmol/L; unlabeled peptide 35 µmol/L
For chain 1 D3F K4F R11F, the ratio to parent was < 1. In the case of chain 1 D3F K4F R11L, the ratio to parent is reported as < 1. With chain 1 D3S K4S R11L the ratio to parent was < 1. For chain 1 Y8L, the ratio to parent was < 1. With chain 1 D3K R11L the ratio to parent was < 1. With chain 1 D3K K4L the ratio to parent was < 1. In the case of chain 1 D3K K4F, the ratio to parent is reported as < 1. In the case of chain 1 D3K K4S, the ratio to parent is reported as < 1. With chain 1 D3F K4F P10D the ratio to parent was < 1. In the case of chain 1 D3F K4F P10S, the ratio to parent is reported as < 1. With chain 1 D3S K4S Y8L the ratio to parent was < 1.
